Assay results taken from paper PMC11303814 (Nature Communications, 2024).

Molecular target: the molecule itself
Experiment: cryo-EM structure

B1: full-length wild-type rat P2X7 receptor (receptor, UniProt Q64663 1-595, looked up)
chain: MPACCSWNDVFQYETNKVTRIQSVNYGTIKWILHMTVFSYVSFALMSDKLYQRKEPLISSVHTKVKGVAEVTENVTEGGVTKLVHGIFDTADYTLPLQGNSFFVMTNYLKSEGQEQKLCPEYPSRGKQCHSDQGCIKGWMDPQSKGIQTGRCIPYDQKRKTCEIFAWCPAEEGKEAPRPALLRSAENFTVLIKNNIDFPGHNYTTRNILPGMNISCTFHKTWNPQCPIFRLGDIFQEIGENFTEVAVQGGIMGIEIYWDCNLDSWSHRCQPKYSFRRLDDKYTNESLFPGYNFRYAKYYKENGMEKRTLIKAFGVRFDILVFGTGGKFDIIQLVVYIGSTLSYFGLATVCIDLIINTYASTCCRSRVYPSCKCCEPCAVNEYYYRKKCEPIVEPKPTLKYVSFVDEPHIWMVDQQLLGKSLQDVKGQEVPRPQTDFLELSRLSLSLHHSPPIPGQPEEMQLLQIEAVPRSRDSPDWCQCGNCLPSQLPENRRALEELCCRRKPGQCITTSELFSKIVLSREALQLLLLYQEPLLALEGEAINSKLRHCAYRSYATWRFVSQDMADFAILPSCCRWKIRKEFPKTQGQYSGFKYPY
modifications: limited glycosylation and acylation included in the models (sites not given)
Question: Does B1 bind?
Answer: binds
